Results on three molecules are retold here after article PMC6580504, “A novel hydroxycinnamoyl transferase for synthesis of hydroxycinnamoyl spermine conjugates in plants” (BMC Plant Biology, 2019).

For orientation: Km means the substrate concentration at which the rate is half of its maximum. Broadly, the Vmax is the rate approached at saturating substrate. In general, kcat refers to the maximal rate divided by the concentration of active sites. A word on the kcat/Km: it is the turnover number divided by the Michaelis constant.

Where a chain is given by its changes, count along the chain named.

Data set [1] concerns the target T1, SmSpmHT (Solanum virginianum, UniProt A0A1I9J7Z8).
T1 construct: full-length ORF, 447 residues; N-terminal His-SUMO fusion from pRham N-His SUMO Kan, SUMO tag removed with SUMO Express Protease; bacterial expression
T1 sequence (A0A1I9J7Z8 1-447): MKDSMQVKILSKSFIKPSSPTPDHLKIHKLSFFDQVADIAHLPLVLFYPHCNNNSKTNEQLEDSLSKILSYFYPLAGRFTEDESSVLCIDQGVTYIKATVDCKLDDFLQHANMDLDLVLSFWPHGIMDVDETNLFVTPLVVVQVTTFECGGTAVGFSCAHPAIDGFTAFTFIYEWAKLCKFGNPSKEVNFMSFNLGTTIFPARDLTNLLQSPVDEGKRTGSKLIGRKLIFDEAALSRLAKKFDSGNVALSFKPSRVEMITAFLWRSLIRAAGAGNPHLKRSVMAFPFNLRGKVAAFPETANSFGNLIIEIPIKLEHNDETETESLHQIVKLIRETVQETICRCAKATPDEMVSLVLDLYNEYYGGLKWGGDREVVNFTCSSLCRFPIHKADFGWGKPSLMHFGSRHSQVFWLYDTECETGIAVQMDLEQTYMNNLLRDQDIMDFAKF
The data set is described as follows: spectrophotometric microplate assay. The data set is classed as biochemical. As to conditions: 0.1 M Tris-HCl, 10 mM EDTA, pH 9.0, 30 °C.

Substrate in data set [2]: CC(C)(COP(=O)(O)OP(=O)(O)OC[C@H]1O[C@@H](n2cnc3c(N)ncnc32)[C@H](O)[C@@H]1OP(=O)(O)O)[C@@H](O)C(=O)NCCC(=O)NCCSC(=O)/C=C/c1ccc(O)c(O)c1
Kind of data set: purified protein. The data set is classed as biochemical, Solanum richardii. As to conditions: 2.5 mM spermine, 0.1 M Tris-HCl, 10 mM EDTA, pH 9.0, 30 °C, acyl donor varied 0 to 240 μM.

Substrate in data set [3]: COc1cc(/C=C/C(=O)SCCNC(=O)CCNC(=O)[C@H](O)C(C)(C)COP(=O)(O)OP(=O)(O)OC[C@H]2O[C@@H](n3cnc4c(N)ncnc43)[C@H](O)[C@@H]2OP(=O)(O)O)ccc1O
Kind of data set: purified protein. It counts as biochemical, Solanum richardii. The settings on record: 2.5 mM spermine, 0.1 M Tris-HCl, 10 mM EDTA, pH 9.0, 30 °C, acyl donor varied 0 to 240 μM.

Substrate in data set [4]: CC(C)(COP(=O)(O)OP(=O)(O)OC[C@H]1O[C@@H](n2cnc3c(N)ncnc32)[C@H](O)[C@@H]1OP(=O)(O)O)[C@@H](O)C(=O)NCCC(=O)NCCSC(=O)/C=C/c1ccc(O)cc1
The data set is described as follows: purified protein. The settings on record: 2.5 mM spermine, 0.1 M Tris-HCl, 10 mM EDTA, pH 9.0, 30 °C, acyl donor varied 0 to 240 μM. The data set is classed as biochemical, Solanum richardii.

As to `CC(C)(COP(=O)(O)OP(=O)(O)OC[C@H]1O[C@@H](n2cnc3c(N)ncnc32)[C@H](O)[C@@H]1OP(=O)(O)O)[C@@H](O)C(=O)NCCC(=O)NCCSC(=O)/C=C/c1ccc(O)c(O)c1` [caffeoyl-CoA], the spectrophotometric microplate assay entry in data set [1] (acyl donor, 120 μM, spermine 2.5 mM) is “The recombinant proteins showed the same substrate specificity, pH preference, and catalytic activity as SrSpmHT”.
As for `NCCCNCCCCNCCCN` [spermine], the spectrophotometric microplate assay result in data set [1] (acyl acceptor, 2.5 mM, hydroxycinnamoyl-CoA donor 120 μM) is “The recombinant proteins showed the same substrate specificity, pH preference, and catalytic activity as SrSpmHT”.

B1: SrSpmHT (Solanum richardii) (protein)
chain: T1 sequence (A0A1I9J7Z8 1-447) with K8N, M442I
notes: full-length ORF, 447 residues; N-terminal His-SUMO fusion from pRham N-His SUMO Kan, SUMO tag removed with SUMO Express Protease
With B1, in data set [2], the Michaelis-Menten constant (Km) is 478.4 ± 46.5 µM, the Vmax is 68.8 ± 6.08 µmol/min/mg, the kcat was determined as 71.5 ± 6.3 s⁻¹ and the kcat/Km was found to be 150000 ± 1000 M⁻¹ s⁻¹. For the same molecule, in data set [3], the Km came to 106.1 ± 9.0 µM, the Vmax stood at 13.4 ± 0.48 µmol/min/mg, the kcat came to 13.9 ± 0.5 s⁻¹ and the kcat/Km turned out to be 132000 ± 6000 M⁻¹ s⁻¹. Further, in data set [4], the Km is 49.0 ± 1.2 µM, the Vmax is 8.15 ± 0.204 µmol/min/mg, the kcat was 8.5 ± 0.21 s⁻¹ and the kcat/Km was 173000 ± 1000 M⁻¹ s⁻¹.
